Assay results reported in patent US6696409.

Tests used:
[1] = target: Y2-like receptors in anaesthetised rats (rat); test: cell-based or functional assay
[2] = target: Y1 receptors in anaesthetised rats (rat); test: cell-based or functional assay

EC50 of the change in pulse interval (PI %), vagal stimulation in anaesthetised rats [1]: 1.26 nmol
Increase in BP (rel to NPY), anaesthetised rats (relative to NPY) [2]: 0
Substance: Ac[L28,I30]NPY24-36 (from UniProt P01303 52-64) (peptide)
